± gives the uncertainty stated by the source.
Experiment: self-splicing fitness, log relative to wild type (ln ratio); higher = more splicing; Tetrahymena group I intron in knt gene, E. coli kanamycin selection, DiMSum; sequences stand for … in CUCUCU…GGAGGGAAAAGUUAUCAGGCAUGCACCUGGUAGCUAGUCUUUAAACCAAUAGAUUGCAUCGGUUUAAAAGGCAAGACCGUCAAAUUGCGGGAAAGGGGUCAACAGCCGUUCAGUACCAAGUCUCAGGGGAAACUUUGAGAUGGCCUUGCAAAGGGUAUGGUAAUAAGCUGACGGACAUGGUCCUAACCACGCAGCCAAGUCCUAAGUCAACAGAUCUUCUGUUGAUAUGGAUGCAGUUCACAGACUAAAUGUCGGUCGGGGAAGAUGUAUUCUUCUCAUAAGAUAUAGUCGGACCUCUCCUUAAUGGGAGCUAGCGGAUGAAGUGAUGCAACACUGGAGCCGCUGGGAACUAAUUUGUAUGCGAAAGUAUAUUGAUUAGUUUUGGAGUACUCGUGGUCG
Method in brief: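 Six replicate transformations of E. coli BL21(DE3) with a pET-22b(+) library were grown overnight at 37°C or 30°C. The library randomised all eight P1ex-region intron nucleotides, the intron lying in the knt kanamycin-resistance gene, and plates were LB agar with or without 25 μg/mL kanamycin plus 100 μg/mL carbenicillin, 50 μM IPTG and 0.2% rhamnose. Pooled colonies were amplicon-sequenced on an Illumina HiSeq 2500, and fitness is the DiMSum error-weighted combination of wild-type-normalised replicate fold changes, kanamycin versus none.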

Row | Sequence | self-splicing fitness (ln) (30 °C) | self-splicing fitness (ln) (37 °C)
1 | UUACAGCAAUAUUACGCCUU | -2.35 ± 0.22 | -0.83 ± 0.17
2 | UUACAGCAAUAUUACGGAGA | -1.79 ± 0.1 | -1.11 ± 0.13
3 | UUACAGCAAUAUUACGGAGG | -2.31 ± 0.22 | -2.1 ± 0.36
4 | UUACAGCAAUAUUACGGGCC | -3.28 ± 0.19 | -3.55 ± 0.42
5 | UUACAGCAAUAUUACGGGGU | -4.73 ± 0.22 | -3.21 ± 0.17
6 | UUACAGCAAUAUUACGGGUG | -1.05 ± 0.061 | -0.414 ± 0.077
7 | UUACAGCAAUAUUACGGUGU | -4.36 ± 0.46 | -2.23 ± 0.21
8 | UUACAGCAAUAUUACGUAAG | -0.248 ± 0.068 | -0.257 ± 0.097
9 | UUACAGCAAUAUUACGUACA | -0.278 ± 0.087 | 0.137 ± 0.1
10 | UUACAGCAAUAUUACGUACU | -0.865 ± 0.1 | -0.831 ± 0.096
11 | UUACAGCAAUAUUACGUAGA | -1.01 ± 0.067 | -0.372 ± 0.081
12 | UUACAGCAAUAUUACGUCCA | -0.325 ± 0.096 | -0.181 ± 0.11
13 | UUACAGCAAUAUUACGUGGU | -3.33 ± 0.13 | -2.36 ± 0.13
14 | UUACAGCAAUAUUACGUGUC | -3.93 ± 0.17 | -3.21 ± 0.21
15 | UUACAGCAAUAUUACGUUCC | -3.34 ± 0.26 | -2.22 ± 0.46
16 | UUACAGCAAUAUUACGUUGG | -2.6 ± 0.12 | -1.69 ± 0.13
17 | UUACAGCAAUAUUACGUUGU | -2.98 ± 0.13 | -2.57 ± 0.16
18 | UUAGAGCAAUAUUACGAAAU | -3.77 ± 0.34 | -3.04 ± 0.47
19 | UUAGAGCAAUAUUACGACCC | -2.63 ± 0.49 | -1.74 ± 0.49
20 | UUAGAGCAAUAUUACGACUA | -1.13 ± 0.31 | -0.676 ± 0.32
21 | UUAGAGCAAUAUUACGAGUU | – | -2.05 ± 0.39
22 | UUAGAGCAAUAUUACGAUGA | 0.174 ± 0.1 | 0.371 ± 0.14
23 | UUAGAGCAAUAUUACGAUUA | -1.07 ± 0.11 | -0.181 ± 0.13
24 | UUAGAGCAAUAUUACGAUUC | -2.62 ± 0.25 | -2.44 ± 0.35
25 | UUAGAGCAAUAUUACGCAGU | -3.64 ± 0.32 | -3.17 ± 0.47

Row | Sequence | self-splicing fitness (ln) (30 °C) | self-splicing fitness (ln) (37 °C)
26 | UUAGAGCAAUAUUACGCCAG | -0.402 ± 0.15 | 0.228 ± 0.23
27 | UUAGAGCAAUAUUACGCCCA | -1.04 ± 0.19 | -0.676 ± 0.3
28 | UUAGAGCAAUAUUACGCUAA | -1.93 ± 0.24 | -0.588 ± 0.36
29 | UUAGAGCAAUAUUACGCUUU | -3.62 ± 0.37 | -2.02 ± 0.32
30 | UUAGAGCAAUAUUACGGAAU | -3.79 ± 0.29 | -2.81 ± 0.25
31 | UUAGAGCAAUAUUACGGCCG | -0.608 ± 0.15 | -0.234 ± 0.23
32 | UUAGAGCAAUAUUACGGCGU | -1.73 ± 0.14 | -1.12 ± 0.22
33 | UUAGAGCAAUAUUACGGCUA | -0.0336 ± 0.14 | 0.4 ± 0.17
34 | UUAGAGCAAUAUUACGGGCU | -2.53 ± 0.32 | –
35 | UUAGAGCAAUAUUACGUAUC | -3.29 ± 0.48 | -1.22 ± 0.34
36 | UUAGAGCAAUAUUACGUAUU | -5.06 ± 0.45 | -2.91 ± 0.35
37 | UUAGAGCAAUAUUACGUCGU | -3.46 ± 0.4 | -1.26 ± 0.21
38 | UUAGAGCAAUAUUACGUCUG | -0.606 ± 0.11 | -0.672 ± 0.12
39 | UUAGAGCAAUAUUACGUGUG | -1.27 ± 0.09 | -1.11 ± 0.14
40 | UUAGAGCAAUAUUACGUUCA | -0.27 ± 0.14 | -0.536 ± 0.17
41 | UUAGAGCAAUAUUACGUUUC | -3.04 ± 0.2 | –
42 | UUAUAGCAAUAUUACGAAAG | -3.47 ± 0.37 | -2.69 ± 0.38
43 | UUAUAGCAAUAUUACGAAGU | -3.61 ± 0.45 | -2.44 ± 0.28
44 | UUAUAGCAAUAUUACGACUC | -1.94 ± 0.19 | -1.94 ± 0.24
45 | UUAUAGCAAUAUUACGAGAG | – | -0.556 ± 0.26
46 | UUAUAGCAAUAUUACGAGGU | – | -2.14 ± 0.37
47 | UUAUAGCAAUAUUACGAUAG | -0.194 ± 0.16 | -0.527 ± 0.16
48 | UUAUAGCAAUAUUACGCACG | -1.18 ± 0.15 | -0.14 ± 0.18
49 | UUAUAGCAAUAUUACGCGAU | -2.8 ± 0.37 | -2.23 ± 0.46
50 | UUAUAGCAAUAUUACGCGCC | -1.96 ± 0.23 | -2.14 ± 0.3

Row | Sequence | self-splicing fitness (ln) (30 °C) | self-splicing fitness (ln) (37 °C)
51 | UUAUAGCAAUAUUACGCUCA | -0.877 ± 0.38 | -1.09 ± 0.42
52 | UUAUAGCAAUAUUACGCUCG | 0.392 ± 0.25 | 0.206 ± 0.22
53 | UUAUAGCAAUAUUACGGAAG | -2.21 ± 0.26 | -1.77 ± 0.26
54 | UUAUAGCAAUAUUACGGAUG | -2.85 ± 0.16 | -1.09 ± 0.15
55 | UUAUAGCAAUAUUACGGCAA | -0.0783 ± 0.11 | -0.348 ± 0.1
56 | UUAUAGCAAUAUUACGGCUG | 0.0456 ± 0.07 | 0.442 ± 0.1
57 | UUAUAGCAAUAUUACGUACG | -1.03 ± 0.12 | -0.0555 ± 0.17
58 | UUAUAGCAAUAUUACGUAGG | -1.75 ± 0.14 | -0.198 ± 0.17
59 | UUAUAGCAAUAUUACGUAGU | -3.03 ± 0.24 | -2.71 ± 0.4
60 | UUAUAGCAAUAUUACGUCCA | -1.54 ± 0.26 | -0.846 ± 0.29
61 | UUAUAGCAAUAUUACGUCCU | -3.3 ± 0.34 | -1.78 ± 0.27
62 | UUAUAGCAAUAUUACGUCUC | -3.25 ± 0.33 | -2.13 ± 0.3
63 | UUAUAGCAAUAUUACGUGAA | -1.91 ± 0.18 | -0.849 ± 0.17
64 | UUAUAGCAAUAUUACGUGGG | -3.41 ± 0.26 | -2.15 ± 0.23
65 | UUCAAGCAAUAUUACGAAAA | -0.341 ± 0.15 | -0.222 ± 0.18
66 | UUCAAGCAAUAUUACGAAGA | -2.03 ± 0.19 | -1.26 ± 0.19
67 | UUCAAGCAAUAUUACGACCU | -2.33 ± 0.27 | -0.916 ± 0.18
68 | UUCAAGCAAUAUUACGACUA | 0.15 ± 0.12 | 0.446 ± 0.14
69 | UUCAAGCAAUAUUACGAGGA | -2.22 ± 0.14 | -1.43 ± 0.13
70 | UUCAAGCAAUAUUACGCAAA | -1.96 ± 0.16 | -0.991 ± 0.15
71 | UUCAAGCAAUAUUACGCACU | 0.0955 ± 0.12 | -0.66 ± 0.14
72 | UUCAAGCAAUAUUACGCAGC | -1.85 ± 0.16 | -2.72 ± 0.31
73 | UUCAAGCAAUAUUACGCAGU | -3.44 ± 0.27 | -3.62 ± 0.42
74 | UUCAAGCAAUAUUACGCAUA | -1.24 ± 0.096 | -0.0175 ± 0.1
75 | UUCAAGCAAUAUUACGCCCA | -0.837 ± 0.24 | 0.3 ± 0.21

Row | Sequence | self-splicing fitness (ln) (30 °C) | self-splicing fitness (ln) (37 °C)
76 | UUCAAGCAAUAUUACGCCGU | -2.25 ± 0.2 | -1.46 ± 0.19
77 | UUCAAGCAAUAUUACGCCUC | -1.59 ± 0.14 | -1.34 ± 0.16
78 | UUCAAGCAAUAUUACGGAAA | -1.83 ± 0.11 | -1.12 ± 0.1
79 | UUCAAGCAAUAUUACGGAAC | -3 ± 0.27 | –
80 | UUCAAGCAAUAUUACGGAGU | -3.82 ± 0.27 | -2.56 ± 0.23
81 | UUCAAGCAAUAUUACGGCAU | -1.71 ± 0.065 | -0.546 ± 0.075
82 | UUCAAGCAAUAUUACGGCUG | -2.62 ± 0.15 | -1.52 ± 0.2
83 | UUCAAGCAAUAUUACGGGAC | -2.58 ± 0.16 | -2.43 ± 0.28
84 | UUCAAGCAAUAUUACGGUAA | -0.679 ± 0.097 | 0.0151 ± 0.1
85 | UUCAAGCAAUAUUACGUCUA | -0.495 ± 0.09 | 0.538 ± 0.081
86 | UUCAAGCAAUAUUACGUGUC | -2.84 ± 0.11 | -2.45 ± 0.14
87 | UUCCAGCAAUAUUACGACUU | -1.5 ± 0.18 | -0.653 ± 0.2
88 | UUCCAGCAAUAUUACGAGUA | -1.12 ± 0.07 | 0.0282 ± 0.078
89 | UUCCAGCAAUAUUACGCACC | -2.48 ± 0.3 | -1.55 ± 0.26
90 | UUCCAGCAAUAUUACGCCAC | – | -1.86 ± 0.34
91 | UUCCAGCAAUAUUACGGACU | -2.17 ± 0.14 | -0.74 ± 0.15
92 | UUCCAGCAAUAUUACGGCCU | -4.05 ± 0.42 | -1.58 ± 0.17
93 | UUCCAGCAAUAUUACGGGGU | -3.02 ± 0.12 | -2.81 ± 0.17
94 | UUCCAGCAAUAUUACGGUAU | -2.13 ± 0.11 | -1.5 ± 0.12
95 | UUCCAGCAAUAUUACGGUCA | -0.23 ± 0.084 | 0.239 ± 0.1
96 | UUCCAGCAAUAUUACGGUCG | -0.395 ± 0.081 | 0.623 ± 0.11
97 | UUCCAGCAAUAUUACGGUGG | -3.89 ± 0.27 | -3.15 ± 0.24
